Experimental data from US20150132821, “Systems and Methods for Improving Nuclease Specificity and Activity” (Georgia Tech Research Corporation, published 2015).

T1: S-02 (S2) NK-TALEN (synthetic, UniProt Q56830 SEQ:41-735)
T1 chain: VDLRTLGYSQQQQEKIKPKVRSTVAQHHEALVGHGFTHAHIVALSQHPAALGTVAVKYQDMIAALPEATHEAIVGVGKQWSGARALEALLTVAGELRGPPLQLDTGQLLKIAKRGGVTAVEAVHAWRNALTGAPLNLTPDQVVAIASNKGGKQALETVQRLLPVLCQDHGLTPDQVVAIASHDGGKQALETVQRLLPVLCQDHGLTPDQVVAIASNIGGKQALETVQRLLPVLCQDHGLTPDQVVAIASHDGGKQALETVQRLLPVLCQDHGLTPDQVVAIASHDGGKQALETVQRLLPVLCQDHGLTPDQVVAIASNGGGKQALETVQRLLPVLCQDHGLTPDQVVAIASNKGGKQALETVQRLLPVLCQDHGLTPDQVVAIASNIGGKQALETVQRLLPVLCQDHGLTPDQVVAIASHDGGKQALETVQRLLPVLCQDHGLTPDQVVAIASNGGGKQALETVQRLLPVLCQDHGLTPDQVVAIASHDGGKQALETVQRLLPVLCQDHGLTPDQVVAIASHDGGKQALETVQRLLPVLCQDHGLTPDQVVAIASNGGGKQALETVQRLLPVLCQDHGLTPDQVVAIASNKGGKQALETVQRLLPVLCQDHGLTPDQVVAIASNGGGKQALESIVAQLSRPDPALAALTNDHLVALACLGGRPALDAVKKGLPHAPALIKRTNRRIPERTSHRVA

T2: S-07 (S7) NK-TALEN (synthetic, UniProt B2SU53 SEQ:41-1041)
T2 chain: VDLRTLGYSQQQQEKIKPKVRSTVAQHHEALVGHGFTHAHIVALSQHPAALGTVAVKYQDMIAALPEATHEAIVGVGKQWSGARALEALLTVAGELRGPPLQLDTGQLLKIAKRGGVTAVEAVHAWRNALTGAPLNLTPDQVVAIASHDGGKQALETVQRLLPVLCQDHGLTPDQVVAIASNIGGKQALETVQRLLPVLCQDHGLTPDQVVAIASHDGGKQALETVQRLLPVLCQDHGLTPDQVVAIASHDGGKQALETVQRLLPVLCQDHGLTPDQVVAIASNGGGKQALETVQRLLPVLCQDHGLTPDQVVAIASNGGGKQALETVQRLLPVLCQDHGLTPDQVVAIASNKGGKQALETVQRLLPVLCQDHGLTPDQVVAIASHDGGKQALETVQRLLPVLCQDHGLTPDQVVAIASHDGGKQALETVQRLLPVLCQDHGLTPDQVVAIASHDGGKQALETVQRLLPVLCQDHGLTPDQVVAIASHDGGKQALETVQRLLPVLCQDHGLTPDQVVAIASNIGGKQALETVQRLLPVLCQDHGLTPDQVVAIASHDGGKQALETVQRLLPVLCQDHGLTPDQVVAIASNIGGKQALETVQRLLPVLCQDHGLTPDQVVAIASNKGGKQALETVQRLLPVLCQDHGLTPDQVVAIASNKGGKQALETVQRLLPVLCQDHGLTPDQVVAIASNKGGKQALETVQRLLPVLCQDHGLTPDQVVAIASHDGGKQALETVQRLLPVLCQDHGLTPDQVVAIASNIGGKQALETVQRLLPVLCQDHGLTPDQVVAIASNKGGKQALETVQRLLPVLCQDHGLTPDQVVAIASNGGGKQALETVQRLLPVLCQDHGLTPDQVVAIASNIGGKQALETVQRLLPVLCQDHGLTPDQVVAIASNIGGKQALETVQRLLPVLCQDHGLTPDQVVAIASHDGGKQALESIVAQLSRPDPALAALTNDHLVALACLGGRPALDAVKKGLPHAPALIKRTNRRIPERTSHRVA

B1: S-02 half-site (dsDNA)
DNA 1: GCACCTGACTCCTGT
DNA 2: ACAGGAGTCAGGTGC
B2: S-07 half-site (dsDNA)
DNA 1: CACCTTGCCCCACAGGGCAGTAAC
DNA 2: GTTACTGCCCTGTGGGGCAAGGTG

Experiments:
S-02 (S2) NK-TALEN = target: T1, S-02 (S2) NK-TALEN; assay: cell_activity; monomer SSA assay; conditions: tags: 3xFLAG, NLS, FokI
Description: (§1) HEK293T cells (ATCC) were cultured in Dulbecco's Modified Eagle Medium (Sigma) supplemented with 10% FBS and 2 mM L-Glutamine. Cells were seeded 80,000 per well of a 24-well plate. After 4 h, cells were transfected with 200 ng of the TALEN plasmid (or 100 ng of each TALEN for hetero-dimeric pairs) and 10 ng of the corresponding SSA reporter plasmid using calcium phosphate transfection. Three control transfections were included: 1) 200 ng of an empty TALEN backbone and 10 ng of an SSA reporter plasmid, 2) 200 ng of an empty TALEN backbone and 10 ng of a pEGFP plasmid, and 3) 100 ng of each GFP-ZFN and 10 ng of an SSA reporter plasmid. Cells were harvested 48 h after transfection. The percentages of pEGFP-transfected samples expressing GFP were determined using an Accuri C6 flow cytometer, as an indication of transfection efficiency. Genomic DNA was isolated using QuickExtract DNA extraction solution (Epicentre) as described20. Sample were PCR amplified for 35 cycles (95° C., 30 s; 60° C., 30 s; 72° C., 60 s) in a 50 μl reaction that contains 2 μl of the extracted DNA, 2.5 μl of each 10 μM target region amplification primer (SSA-Cell-F4, 5′-[…] (SEQ ID NO: 183); SSA-Cell-R4, 5′-[…] (SEQ ID NO: 184)), and 25 μl of GoTaq green master mix (Promega). PCR reactions were then separated on 2% agarose gels and the percentages of SSA-repaired products were quantified using ImageJ.

S-07 (S7) NK-TALEN = target: T2, S-07 (S7) NK-TALEN; assay: cell_activity; monomer SSA assay; conditions: tags: 3xFLAG, NLS, FokI
Description: as §1

Binder	activity (S-02 (S2) NK-TALEN) [% SSA]	activity (S-07 (S7) NK-TALEN) [% SSA]
B1	23	
B2		7.5
